Measured values from patent publication US20230416726A1 (University of Washington, published 2023).

Target: T1, programmed cell death ligand 1 (PD-L1) (UniProt Q9NZQ7 19-239, limits assumed, biotinylated in the yeast display assays)
T1 construct: also called PD-Li
Experiment: BLI, max binding signal versus PD-L1 concentration

T1 sequence (Q9NZQ7 19-239 limits assumed): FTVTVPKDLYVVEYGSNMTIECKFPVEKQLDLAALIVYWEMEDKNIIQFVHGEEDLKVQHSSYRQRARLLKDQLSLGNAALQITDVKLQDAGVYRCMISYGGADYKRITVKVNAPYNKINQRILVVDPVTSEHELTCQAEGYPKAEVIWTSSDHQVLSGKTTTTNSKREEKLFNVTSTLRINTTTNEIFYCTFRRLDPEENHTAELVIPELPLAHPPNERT

B1: pdl1_inp_1 (purified from E. coli) (designed binder)
chain: DLEEFFEECLKEAEEVRKEVLEGKARIQIKESVRKEDPEGGTYVCGVISLGPKGGKFHVVFHKEDPEGKEETLARFEFKVEGGKVELLELKSKDPELKKLAEKYAEKLLE
notes: Expressed as a monomer; Tested by BLI; not shown: C-terminal SNAC tag and 6xHis tag from the modified pET29b+ vector
Kd: 326 nM
